{"source": "the DeepSol protein solubility set", "experiment": "soluble on expression in E. coli; label from the status in PepcDB or PDB records"}
{"sequence": "MMSLREKLIRELRRRGPIGIDQYEIEELMGFSKSTASEALSKLEAEGIIARRQISGRSKRVWLREFIPYRDPEMIRIGCLKSTEYAGFLSAAKDYCENKGIKAVIRFYNDATSILHDLSTGTLEFGLSPIFTETLFALSRHDIVIAGPVASGGSGIFENPASCENIVATSESTSMMLLSREFRRREGDVKITIFSDPIKASDGFRAGDFRYIAIWEPYASVIGANKLYDYSDLMDTFPCCGIAVSSGRSKDADLKSIIDAYRETDVEIRSDVIDMLSKATRCSKRAVMNSLGSYNFKLKYDMQTILRYMDFIGYPASEDAIKKVFLL", "values": [{"measurement": "soluble on expression in E. coli", "value": "soluble"}]}
{"sequence": "MLTLKNDYLTVKINPLGAELTSVVDNETQLEYMWQADKAYWGRHAPILFPIVGRLQDNQYRLGERTYHMTQHGFARDREFTVIDQTPTQVTLELTADDQSRALFPADFTLTVTFELIDHQLRFSADVFNPATTTLPFSIGAHPGFNVPLGDALADFTDYQVTVSPKKTYQRVPLVGPYSDSQHTEPLDLTQPLGLDHGLFAHDAQVLTLDSETTVMLSTPTNDHGVALTTTAPYLGIWSPYPKQAPFVCLEPWWGLADDVQATGELTTKVAIHHLAAQQHFQAAYQVTYFLEHHHHHH", "values": [{"measurement": "soluble on expression in E. coli", "value": "not soluble"}]}
{"sequence": "MNHQYQDLIDIFNQTFYADYNTKLELGGDEPIYLPADERVSYHRIIFARGFYASALHEIAHWCVAGPQRRLLEDFGYWYEPDGRTAQVQAEFEKVEIRPQAYEWILAISAGFPFTVSCDNLNGDFEPDRLAFMSKVHSEVLKILEQGLPQRVKMLSEALRAFYQTPALLPEHFVVK", "values": [{"measurement": "soluble on expression in E. coli", "value": "not soluble"}]}
{"sequence": "MGSDKIHHHHHHMPTMIPAASRAMAVFEVFAREKRELSNSDMARLLSLPESSTSDLLHTLHSLGYLMRTTRTRRFYPTGRLSEIARQIAENDPLTTVAQEAIEQVSARTNESVFFGVLDGTAVKVMAVQASRLPLRYIIEVGYRAALHASALGKGLLGLLPPEEARETLAKSSLRAVTAHTVVDIDTLMAQVAKGRKRGWYEAHEEGSEGVHGLAVTGWLGGQAAGISLAGPAERMKKNHDAYLAALIEVRDALMSEE", "values": [{"measurement": "soluble on expression in E. coli", "value": "not soluble"}]}
{"sequence": "GGGSCYFIPNEGVPGDSTRKCMDLKGNKHPINSEWQTDNCETCTCYETEISCCTLVSTPVGYDKDNCQRIFKKEDCKYIVVEKKDPKKTCSVSEWII", "values": [{"measurement": "soluble on expression in E. coli", "value": "soluble"}]}
{"sequence": "MSFNPDYESVAKAFIQHYYSKFDVGDGMSRAQGLSDLYDPENSYMTFEGQQAKGRDGILQKFTTLGFTKIQRAITVIDSQPLYDGSIQVMVLGQLKTDEDPINPFSQVFILRPNNQGSYFIGNEIFRLDLHNN", "values": [{"measurement": "soluble on expression in E. coli", "value": "not soluble"}]}
{"sequence": "MVEEAERIALISHTAPDGDSVGSSIGFAAMLREKGKSHISVIVPDDIPQYLYCIPGANKVIVHETHPSEAEKALAEADLVFCMDFNAPHRVAGLQSALESSSAPKVLIDHHLYPADIFTLSFSYPPLSSTSELVLRLAKAIGMESYLTQDAATALMTGILTDTGVFSYSSSDPDLYLLVADLMRAGADKDTIIRNTFQQNSEGKMRMQGYVLYEKMTLLPEMGVAYFTLSAEELVRFHNRTGDTDGLANLPLDIAGIEAVCFLREDKNQIKLSFRSTGNYPVNTLAENFGGGGHKNAAGGEFQGSLQEATEKLLKIWKDFNPKNYNNKNQQLEHHHHHH", "values": [{"measurement": "soluble on expression in E. coli", "value": "soluble"}]}
{"sequence": "EQPFYRTKVKLKKEIVTLGVPGVDPNKQVGQYVEAKDWNALISDPEVLLIDTRNDYEVAIGTFEGAVDPKTRSFREFPEYIKAHYDPARHKKVAMFCTGGIRCEKASSYMLGAGFEEVFHLKGGILKYLEEVPQEQSLWRGDCFVFDNRVTVRHDLSEGEYDQCHA", "values": [{"measurement": "soluble on expression in E. coli", "value": "not soluble"}]}
{"sequence": "MGSDKIHHHHHHMTTATPLLSLQKPTPIALAEIEESLSQLWANQQHSGAGALVSRAATFSIVVYEPEEFQQILAALGLYHGHLDGLHGPMTRAAIAQAQTQFGLPSTGRPDSATFKALRQAYQALKHSPSLTNQDLRGAVLSNVIATQNPCRIVSLCPTLEGDRPISAEVSAYCPITSAKQASLICCEAVTLRGSQAEMEAIGTFVSELLLPGLPRYVWWKATPNPEQLLFQQLANSCNCMIFDSSYFSDPEAEFLRFQDLIDQETYIADLNWHRLAAWQELTAAAFDPPERRDGLLEVDQLVIDYEKGNPAQALMYMGWIASRLGWQPVSYRCEGGEYDLRQIEFRTEDDRMVKVELAGIPVGDPGLVLGDLIALRLTSENPDADCCTILCSETTGCMRMEAGGGAQSCRTEQVAPPSNETSESLLAMQMQRWGRDALYEESLAVIAVALRQRTHA", "values": [{"measurement": "soluble on expression in E. coli", "value": "not soluble"}]}
{"sequence": "MGSDKIHHHHHHMVKAVVLLSGGLDSATVLAIARQQGYECYALSVSYGQRHGAELAAAKNLARSLGATAHKIIQVDLSTFGGSALIDKEREIPTDGVTPGIPSTYVPARNTIMLSIALAWAEVLGSGDIFIGVNAIDYSGYPDCRPEYIEAFETMANVATKAGIEGTRLAIHAPLMNLSKAEIIKRGGVLGVDYSMTVSCYQADDAGLACGVCDSCRLRRAGFESADVPDVTRYHAGFRQTPAS", "values": [{"measurement": "soluble on expression in E. coli", "value": "not soluble"}]}
{"sequence": "MKIAIASGKGGTGKTTVAVNLALALEEVQLFDCDVEEPNCNLFLGFEMEPVEEVVFLVPEINPDKCTLCRGCSDFCRYNALAAIPNRILSFPSLCHGCGGCSFVCPAGAIEEKPETIGIIQKALSDSPLTFFCGTLKIGKATATPVIKSLQNHIDESRPAIIDSPPGTACPVLAVMGFADYCVLVTESTPFGFHDFCLALEAARALNVPVGVVLNRDGLGDSRVEDFCRAEGIPILLRIPNDRTIARLYSEGIPFVKEMPEWKKQFKDMFETIKTGLYESKGVQLEHHHHHH", "values": [{"measurement": "soluble on expression in E. coli", "value": "not soluble"}]}
{"sequence": "WKRGKISTQLDDDEFRAGMRKAQVIDVREKKEFDAGHILGARNIPYSQMKNRTQELRSDLPVYLYDQGRTFSGRAAMLLSKKGFTQLYILKNGYQRWTGKTKKTKY", "values": [{"measurement": "soluble on expression in E. coli", "value": "soluble"}]}
{"sequence": "MSLAGQIAIVTGASRGIGRGIALQLGEAGATVYITGRKPEESLNSKVGLSGLEATADEITKRGGKGIARFVDHQNMEEVKNFFEVVEKEHQGQLDILVNNAYQGVTAISENMGKPFYETDPYVWDTINNVGLRNHYFCTVYAARLMTARNKGLIVNVSSGGGLRYLFNVAYGVGKQALDRMSADTAVELRKKNVCVVSIWPGAVRTELVDKMFKDENGKPRPEIKNAEVFANGETVEYPGRAVVSLASDPRRMDKTGRILITEDLGKEYGFVDIDGLRPPNLRSVSFILKHLGWNTTANFVPTWVKLPGWLVWAGNSRL", "values": [{"measurement": "soluble on expression in E. coli", "value": "soluble"}]}
{"sequence": "AHHHHHHGSFRLRDFEYYNRTVFLRVDLNSPMSNGKIISDARFRAVLPTIKYLIESGAKVVVGTHQGKPYSEEYSTTEEHARILSELLNMHVEYVEDIFGKYARERIKAMKPGEVIVLENLRFSAEEVKNATIEECEKTFFVRKLSQVIDLVVNDAFAAAHRSQPSLVGFARIKPMIMGFLMEKEVDALTKAYESEEKPRVYVLGGAKVDDSLKVAENVLRKEKADLILTGGLVGQLFTLAKGFDLGRENIKFLEKKGILKYVDWAEKILDEFYPYVRTPVDFAIDFKGERVEIDLLSDEKRLFDEYPILDIGSRTVEKYREILLKARIIVANGPMGVFEREEFAVGTIGVFKAIGESPAFSVIGGGHSIASIYKYNITGISHISTGGGAMLTFFAGEKLPVLEALKISYEKFSNLLS", "values": [{"measurement": "soluble on expression in E. coli", "value": "soluble"}]}
{"sequence": "MFQPQDDQDACYDNSIHYTDSLLGQVFELLKDRRASVMYFADHGLERDPTKKNVYFHGGREASQQAYHVPMFIWYSPVLGDGVDRTTENNIFSTAYNNYLINAWMGVTKPEQPQTLEEVIAHYKGDSRVVDANHDVFDYVMLRKEFTEDKQGNPTPEGQG", "values": [{"measurement": "soluble on expression in E. coli", "value": "not soluble"}]}
{"sequence": "MLKPEMIEKLNEQMNLELYSSLLYQQMSAWCSYHTFEGAAAFLRRHAQEEMTHMQRLFDYLTDTGNLPRINTVESPFAEYSSLDELFQETYKHEQLITQKINELAHAAMTNQDYPTFNFLQWYVSEQHEEEKLFKSIIDKLSLAGKSGEGLYFIDKELSTLDTQN", "values": [{"measurement": "soluble on expression in E. coli", "value": "soluble"}]}
{"sequence": "MKIVKAEVFVTCPGRNFVTLKITTEDGITGLGDATLNGRELSVASYLQDHLCPRLIGRDAHRIEDIWQFFYKGAYWRRGPVTMSAISAVDMALWDIKAKAANMPLYQLLGGASREGVMVYCHTTGHSIDEALDDYARHQELGFKAIRVQCGIPGMKTTYGMSKGKGLAYEPATKGQWPEEQLWSTEKYLDFMPKLFDAVRNKFGFNEHLLHDMHHRLTPIEAARFGKSIEDYRMFWMEDPTPAENQECFRLIRQHTVTPIAVGEVFNSIWDCKQLIEEQLIDYIRTTLTHAGGITGMRRIADFASLYQVRTGSHGPSDLSPVCMAAALHFDLWVPNFGVQEYMGYSEQMLEVFPHNWTFDNGYMHPGDKPGLGIEFDEKLAAKYPYEPAYLPVARLEDGTLWNR", "values": [{"measurement": "soluble on expression in E. coli", "value": "not soluble"}]}
{"sequence": "MTPDPLYMRRAIELAQNAEGFTSPNPLVGAVLVAHGRIIGEGYHHCAGMPHAEVIAINSVRDRALLRESTLYVSLEPCSHYGKTPPCAELILREGIPHVVVAMLDPFPSVSGRGIKMLRDAGVSVQVGLLAEEAEELNRHFLTAQRQHRPYVTLKWAESSDGFIDALRDDASTPPVRLSTPLTTRFVHHRRMIHDAILVGFRTALLDNPSLTVRHWYGRNPLRVVTDRHLALPRHLTLFDGSVPTLVFTEKEQPSGYPSAVSFVRIDPSRPPVEQMLAELHARGIQSLLVEGGACILRSFIDSGLYDDVRIEHSTIILNEGVRAPHLPSY", "values": [{"measurement": "soluble on expression in E. coli", "value": "not soluble"}]}
{"sequence": "MGSDKIHHHHHHMDPRLLEYYNRELSYLRETGAEFAARHPKVAARLGMQGTDIADPYVERMVEAFSFLTARTQLKIDAEFPRFTQRLLEVVSPNYVTPTPSMSVAQLHPDTEEGDLAKGFTVPRDTAFFSAIPEGESTACQFRSSQDVTLWPLAIEEARLTAAPPDMPALHRYLPANIHVAGALRITLRTFGELTFSQLAGLDRLPFYLCGEERTASHLLELLHTSAIAPLAGIPGHFDGALDVNLQQPVMYEGLEPDQGLLPLAWNVFHGHNLLHEYFACPERFYFFTPTGLSAGLQKIDGGVAEIVILLNRLPPDWLIHQTNAAQFSLFCTPVINLFPRVTARIDVTHSTTEQHLVVDRTHPLDYEVFSVQEVEGLETDTTRKMAFRPLYHTRNNDEGNHGRYFSLRREPRRLSENARRYGTRTPYTGSEVFLSLVDQYEAPYPENLRHITITAMVTNRDLPCLIARNGRDDLTVDAAIPVAGVGLIRPPRSPQPPMAEREMAWRLIRQLSFNYLPLADLDHRTGGQALRDLLNLFIPAHDSPQSRQVRSLIGCKTTPVTRRLPGSGLLVYGRGVSCELTVDEEGFSGISPYLFGLVLEHYIARHVSINTFSQMTLHSMQRGKIMTWPVRAGQRGSV", "values": [{"measurement": "soluble on expression in E. coli", "value": "not soluble"}]}
{"sequence": "MSAEVETSEGVDESEKKNSGALEKENQMRMADLSELLKEGTKEAHDRAENTQFVKDFLKGNIKKELFKLATTALYFTYSALEEEMERNKDHPAFAPLYFPMELHRKEALTKDMEYFFGENWEEQVQCPKAAQKYVERIHYIGQNEPELLVAHAYTRYMGDLSGGQVLKKVAQRALKLPSTGEGTQFYLFENVDNAQQFKQLYRARMNALDLNMKTKERIVEEANKAFEYNMQIFNELDQAGSTLARETLEDGFPVHDGKGDMRKCPFYAAEQDKGALEGSSCPFRTAM", "values": [{"measurement": "soluble on expression in E. coli", "value": "soluble"}]}
{"sequence": "MAPVTPDAVNARQQRPADPALRRLMHPHHRNYTASKASAHSVKSVSRCGKSRSELGRMERVGSVARSICSRHTRHGVDRSHFSLRDFFRGISANFELGKDFLREMNTPIHVSEAVFLPLSLCTLSPGRCLRLSPFGHSLTLGSHCEICINRSQVHVPQEFSSTQLSFFNNVHKIIPNKTFYVSLLSSSPSAVKAGLSQPSLLYAYLVTGHFCGTICPIFSTNGKGRLIMHLLLQGTSLHIPETCLKLLCENIGPTYELAVDLVGDAFCIKVSPRDTVYEKAVNVDEDAIYEAIKDLECGDELRLQIINYTQLILENKQ", "values": [{"measurement": "soluble on expression in E. coli", "value": "not soluble"}]}
